Target: T1, purified human properdin (human, UniProt P27918 28-469)
T1 construct: also called factor P
Assay: ELISA, properdin coated, normalized 293T supernatants, anti-V5 detection

T1 sequence (P27918 28-469 limits assumed): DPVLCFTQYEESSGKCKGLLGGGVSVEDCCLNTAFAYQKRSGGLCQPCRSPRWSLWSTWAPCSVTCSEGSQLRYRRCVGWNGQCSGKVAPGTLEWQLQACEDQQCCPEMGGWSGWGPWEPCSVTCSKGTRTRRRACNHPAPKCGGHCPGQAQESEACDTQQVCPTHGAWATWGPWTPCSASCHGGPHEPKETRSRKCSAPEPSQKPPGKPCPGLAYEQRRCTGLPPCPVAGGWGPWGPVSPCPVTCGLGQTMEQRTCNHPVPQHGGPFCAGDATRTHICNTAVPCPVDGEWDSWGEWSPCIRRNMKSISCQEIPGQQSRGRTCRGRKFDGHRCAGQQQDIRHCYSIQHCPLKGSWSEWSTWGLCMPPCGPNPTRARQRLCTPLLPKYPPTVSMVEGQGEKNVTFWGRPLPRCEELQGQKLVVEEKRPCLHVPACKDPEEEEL

B1: recombinant Rhipicephalus appendiculatus histamine-binding protein 2 (RaHBP2) (other, UniProt O77421 20-190, looked up, not shown: small tags and cut ends)
chain: NQPDWADEAANGAHQDAWKSLKADVENVYYMVKATYKNDPVWGNDFTCVGVMANDVNEDEKSIQAEFLFMNNADTNMQFATEKVTAVKMYGYNRENAFRYETEDGQVFTDVIAYSDDNCDVIYVPGTDGNEEGYELWTTDYDNIPANCLNKFNEYAVGRETRDVFTSACLE
notes: Negative control, supernatant of transfected 293T cells
- binding result: no binding

— patent US20110008351A1 (UNIVERSITE LIBRE DE BRUXELLES, published 2011)
